Values quoted from earlier work, collected in US7897835B2, “Expression vectors pSSA-K and pSSA-H for expression of SOD and APX in plants to provide stress tolerance” (Korea Research Institute of Bioscience and Biotechnology, priority 2004, dated 2011).

System: tobacco protoplast
Settings: transient assay with GUS protein

B1: SWPA2 promoter: oxidative stress inducible peroxidase promoter isolated from sweetpotato (Ipomoea batatas), SEQ. ID. No 15 (nucleic acid)
DNA: AAGCTTCCATGATCAGATCGATAATACCAAATGGTACCACCTAACTAGGTGATATATATTATGTATGTCATTATTTTAAACTGTATTACAAAGACTATTTTTTCATTAATTGGTACAAAGAAAAATTAAACAGAAAAGAAAGGAAAAAATGACTCACCACCTAGCACCTAGACACCTAGACACCAAGTACCCAAACCCTCTATTTTCAACATCTATTTTCAGATGTAAATATGAGTTGGACGAAGAAGGTGTTAGCAATTATTTGATTAATCTTGCTACGATAATTATGATCCACTCACTTAGTCATTTTTTTCAGACCAAGACAACTAGCTTGAGTTTTTTATTGTATGTGGTCGGAACGTTTTTTGTAATTAAAAAAATAAAAGTTGCATCATTATATATGGTAGATTAAGTAATTGATCAATCAACGTTTAATTTTGCATTTATCGGCAAGGTGGAGGTTCCAACTTCCAGTCGAACTTAGAGAGTCATTGGAGACCTTGACCAGTTAACTAGCGGTGTCGAAAACCTGCACAACTTGAGATTTAATTGCATACCTTTTATATATGACGCGTTTTATTTTTTTTTCCTAGAAAATAATTTGGAAGAAAATAAGAATATGTATTCTGTGAAAGCTAGGCCAAAACGAATGTCTTTTCGTCGTTTTCGTTAAAGGTTTAGATCATATTTCATCTGGTCCAACACTCAAACTTGTATAATGGACGAATTATTAGTCATTTTAGACCTACCGGCTAGCGCGACTTTTTTGTTTTCCATAAAGATTCGATAATTGCATGGCCAGATGCAAAGTTTGAAATTTAATGTTTGCCAAATCCTATCATACACCACAACACATGTCTCAGGGCCAAGTGGCACCAGCAAACATTCCTGTCATAATTAATTTTTTTAATGAGAAGGAGGAAACTCACAGCTATTACTCGAAGGTATATAATATTGAGTAAATCTTACTTTGTGATTCTAGTTGACAAAACACCGCAAGATAAACTATACTAAGTTCAAATCACCTCACCGGGTTGGCTCAGATTGGTTTTTTCAATACAAGAGGGGGTGTGAACTCCCGTGCCGACCTCTTTTGAGGGACAATAATGTACGGTCACGCCAACCTAGCTTGATTTTTTCTGACAAATATATTACTACATATATTACACGGTCAAATAATTAATCAAAAAATAAAAAAAGACCCCAATTAAAGTCCCCAACCACTCTCAAATATTCTATTTAAGGGAAACCTTAGAGGCAATTCATGCATCCTCAACCCCTTCTTCTTCATTTTCTTAATCTTACATTTTCCTTTGACCCTCGAG
modifications: Ipomoea batatas
- promoter activity relative to CaMV 35S promoter: at least 30 fold
